The stoichiometry N is a count of units in the complex or per binding partner.

This data set concerns the molecule itself. As to the kind of experiment: single-molecule photobleaching step counting (TIRF microscopy); MEC-4::EGFP on the Xenopus oocyte surface in the presence of MEC-19, 1-2 d after cRNA injection; observed bleaching steps compared with the binomial distribution predicted for trimers.

B1: C-terminally EGFP-tagged MEC-4 (natural protein, C. elegans, UniProt P24612 1-768, looked up)
chain: MSWMQNLKNYQHLRDPSEYMSQVYGDPLAYLQETTKFVTEREYYEDFGYGECFNSTESEVQCELITGEFDPKLLPYDKRLAWHFKEFCYKTSAHGIPMIGEAPNVYYRAVWVVLFLGCMIMLYLNAQSVLDKYNRNEKIVDIQLKFDTAPFPAITLCNLNPYKASLATSVDLVKRTLSAFDGAMGKAGGNKDHEEEREVVTEPPTTPAPTTKPARRRGKRDLSGAFFEPGFARCLCGSQGSSEQEDKDEEKEEELLETTTKKVFNINDADEEWDGMEEYDNEHYENYDVEATTGMNMMEECQSERTKFDEPTGFDDRCICAFDRSTHDAWPCFLNGTWETTECDTCNEHAFCTKDNKTAKGHRSPCICAPSRFCVAYNGKTPPIEIWTYLQGGTPTEDPNFLEAMGFQGMTDEVAIVTKAKENIMFAMATLSMQDRERLSTTKRELVHKCSFNGKACDIEADFLTHIDPAFGSCFTFNHNRTVNLTSIRAGPMYGLRMLVYVNASDYMPTTEATGVRLTIHDKEDFPFPDTFGYSAPTGYVSSFGLRLRKMSRLPAPYGDCVPDGKTSDYIYSNYEYSVEGCYRSCFQQLVLKECRCGDPRFPVPENARHCDAADPIARKCLDARMNDLGGLHGSFRCRCQQPCRQSIYSVTYSPAKWPSLSLQIQLGSCNGTAVECNKHYKENGAMVEVFYEQLNFEMLTESEAYGFVNLLADFGGQLGLWCGISFLTCCEFVFLFLETAYMSAEHNYSLYKKKKAEKAKKIASGSF
notes: MEC-4, C. elegans DEG/ENaC protein, wild type; construct described in Chen et al. (2015); also called MEC-4::EGFP; source: Xenopus laevis oocytes, cRNA injected, on the oocyte surface; not shown: EGFP, C-terminal, kept
In the case of B1, the “stoichiometry N” value was 3.

The record behind these values is article PMC4825646, “MEC-10 and MEC-19 Reduce the Neurotoxicity of the MEC-4(d) DEG/ENaC Channel in Caenorhabditis elegans” (G3: Genes|Genomes|Genetics, 2016).
